Here are results for two molecules from patent US20210388330A1.

Assay [1] has as its target soluble mannose-6-phosphate receptor (sM6PR). Briefly: Biacore (SPR) analysis of binding to sM6PR, two KD values fitted. A general note: In SPR one partner is held on a chip, and binding of the other changes the refractive index at the surface.
For assay [2] the target is unchanged. Nature of the assay: Biacore (SPR), dpIDS compared with untreated IDS.

B1: Recombinant iduronate-2-sulfatase (IDS), produced in human HT-1080 cells (enzyme)
chain: SETQANSTTDALNVLLIIVDDLRPSLGCYGDKLVRSPNIDQLASHSLLFQNAFAQQAVCAPSRVSFLTGRRPDTTRLYDFNSYWRVHAGNFSTIPQYFKENGYVTMSVGKVFHPGISSNHTDDSPYSWSFPPYHPSSEKYENTKTCRGPDGELHANLLCPVDVLDVPEGTLPDKQSTEQAIQLLEKMKTSASPFFLAVGYHKPHIPFRYPKEFQKLYPLENITLAPDPEVPDGLPPVAYNPWMDIRQREDVQALNISVPYGPIPVDFQRKIRQSYFASVSYLDTQVGRLLSALDDLQLANSTIIAFTSDHGWALGEHGEWAKYSNFDVATHVPLIFYVPGRTASLPEAGEKLFPYLDPFDSASQLMEPGRQSMDLVELVSLFPTLAGLAGLQVPPRCPVPSFHVELCREGKNLLKHFRFRDLEEDPYLPGNPRELIAYSQYPRPSDIPQWNSDKPSLKDIKIMGYSIRTIDYRYTVWVGFNPDEFLANFSDIHAGELYFVDSDPLQDHNMYNDSQGGDLFQLLMP
modifications: mannose-6-phosphate residues on N-linked oligomannose glycans; M6P content 2.56 pmol M6P/pmol protein (Table 3)
In assay [1], B1 gave a KD1 of 58.2 nM and a KD2 of 0.813 nM.

B2: CIP-treated dephosphorylated iduronate-2-sulfatase (dpIDS) (enzyme)
chain: SETQANSTTDALNVLLIIVDDLRPSLGCYGDKLVRSPNIDQLASHSLLFQNAFAQQAVCAPSRVSFLTGRRPDTTRLYDFNSYWRVHAGNFSTIPQYFKENGYVTMSVGKVFHPGISSNHTDDSPYSWSFPPYHPSSEKYENTKTCRGPDGELHANLLCPVDVLDVPEGTLPDKQSTEQAIQLLEKMKTSASPFFLAVGYHKPHIPFRYPKEFQKLYPLENITLAPDPEVPDGLPPVAYNPWMDIRQREDVQALNISVPYGPIPVDFQRKIRQSYFASVSYLDTQVGRLLSALDDLQLANSTIIAFTSDHGWALGEHGEWAKYSNFDVATHVPLIFYVPGRTASLPEAGEKLFPYLDPFDSASQLMEPGRQSMDLVELVSLFPTLAGLAGLQVPPRCPVPSFHVELCREGKNLLKHFRFRDLEEDPYLPGNPRELIAYSQYPRPSDIPQWNSDKPSLKDIKIMGYSIRTIDYRYTVWVGFNPDEFLANFSDIHAGELYFVDSDPLQDHNMYNDSQGGDLFQLLMP
modifications: dephosphorylated with acrylic bead-bound calf intestine alkaline phosphatase; M6P content reduced to 0.15 pmol M6P/pmol protein (Table 3)
Consider B2, for which the fold reduction of binding affinity of KD2 against IDS in assay [2] came out at 7 fold. In assay [1], the KD1 was determined as 32.1 nM and the KD2 turned out to be 5.94 nM.
